Here are results for five molecules from PMC4459817, “Vasculotide reduces endothelial permeability and tumor cell extravasation in the absence of binding to or agonistic activation of Tie2” (EMBO Molecular Medicine, 2015).

Assay [1] has as its system Tie2 (Ang1 or Ang2 binding). Conditions: synthetic free form, ref Tournaire et al, 2004, cited from earlier work; for inhibition of Ang1 or Ang2 binding to Tie2: competition assays, tested up to 1 mM. The text has this: For therapeutic use, recombinant variants or mimetics of multimeric Ang1 have been engineered, including Ang1* and Ang-F1-Fc-F1/Bow-Ang1 (Davis et al, [2003]; Daly et al, [2013]), MAT-Ang1 and COMP-Ang1 (Cho et al, [2004]; Koh, [2013]). […] The main focus of the original paper that discovered T7 (Tournaire et al, [2004]) was actually on a different peptide called ‘T4’ (NLLMAAS) and its potential use as a Tie2 inhibitor/antagonist.

Another assay addresses T1, human Tie2-Fc (hTie2-Fc) (Homo sapiens, UniProt Q02763).
T1 construct: Purified human or mouse Tie2-Fc (i.e., Fc-conjugated extracellular domains of Tie2); purchased R&D Systems 313-TI-100
The experiment in a line: SPR binding to human Tie2-Fc. Conditions: human Tie2-Fc, 0.625–10 nM, 37°C, pH 7.4, Fig9C. The text has this: To better understand the difficulties we had in observing Tie2 activation by VT, we sought to characterize the binding affinity and kinetics of VT to Tie2. Purified human or mouse Tie2-Fc (i.e., Fc-conjugated extracellular domains of Tie2) were first coupled to protein A sepharose beads for pull-down experiments (Fig9A and B) or immobilized on a Biacore CM5 sensor chip for surface plasmon resonance (SPR) experiments (Fig9C and Supplementary Fig S3).
Figure 9 Binding of Vasculotide vs. Ang1 variants to the extracellular domain of Tie2 • A–B Pull-down assay. Input ligands—rhAng1 (A) and VT (B)—were incubated with either protein A sepharose beads only, bead-conjugated mouse Tie2-Fc (mTie2), or bead-conjugated human Tie2-Fc (hTie2). […] The ‘unbound’ fraction is 7% of residual/free ligands remaining in the supernatant. • C Quantitative kinetics analysis by SPR. All analytes were run at increasing concentrations of 0.625, 1.25, 2.5, 5, and 10 nM, at 37°C and pH 7.4. […] Source data are available online for this figure. […]
(§1) 9. Tie2 Receptor-Binding Assays
(§2) Vasculotide (VT) was manufactured by Bachem UK Ltd. T7c (CHHHRHSF) was synthesized by Genscript (Piscataway, NJ, USA). PEG-Cys consists of a single cysteine reacted to each of the 4 arms of PEG-maleimide (Sunbright PTE-100MA, NOF Corporation, Tokyo, Japan). BowAng1 (Ang1-Fd-Fc-Fd) was made and provided by Regeneron Pharmaceuticals, Inc. (Tarrytown, NY, USA). COMP-Ang1 was purified in the Kerbel lab from serum-free culture media conditioned by an engineered CHO cell line provided by Dr. Gou Young Koh (KAIST), according to published protocols (Hwang et al, 2008).
(§3) Recombinant human Angiopoietin-1 (rhAng1) and Vascular Endothelial Growth Factor ( rhVEGF) were […]
(§4) purchased from R&D Systems. […]
(structural/molecular weight control for VT), and 40 μL of supernatant (7% of residual/unbound ligand) – were similarly boiled in SDS sample buffer. Ang1 samples and controls were resolved by 7.5% polyacrylamide gel electrophoresis (PAGE), electroblotted onto PVDF membranes, and probed with an anti-Ang1 antibody (R&D Sytems, AF923; diluted 1:2,000 in TBS supplemented with 7% BSA and 0.1% Tween-20) at 75kDa (reduced monomers). VT samples and controls were resolved by 17% PAGE, blotted onto PVDF membranes, and probed with an anti-PEG antibody (Silver Lake Research, CH2074; diluted 1:4,000 in TBS supplemented with 7% BSA and 0.05% CHAPS*) at higher “apparent” molecular weights than the expected 14 and 10kDa due to their polymeric nature and large hydrodynamic radii (Zheng et al, 2007). *Note: non-ionic, PEO-based, polymer detergents were avoided at these steps as they cross-react with the anti-PEG antibody used for detecting VT.
Surface Plasmon Resonance (SPR) Experiments: The binding of analytes – VT, T7c peptide, PEG-Cys, rhAng1, COMP-Ang1, BowAng1, and rhVEGF – to the extracellular domain of Tie2 were […]
investigated by SPR using a Biacore T200 Instrument (GE Healthcare). For qualitative binding analysis, mTie2-Fc was dissolved in 10mM acetate buffer (pH 4.5) and immobilized at high density onto a CM5 sensor chip using amine coupling chemistry as described by the manufacturer to a response of 11,500RU.
Binding analysis were performed by exposure of immobilized mTie2-Fc to the analytes diluted in HBS-EP (0.01M HEPES pH 7.4, 0.15M NaCl, 3mM EDTA, 0.005% v/v Tween-20), which was supplemented with 1mg/mL carboxymethyl dextran (NSB reducer, GE Healthcare) to reduce non-specific binding to the sensor chip. Analytes were injected at 30μL/min (association time 120s, dissociation time 120s) at 37 °C, and the chip surface was regenerated each cycle by a 60s pulse of 4M MgCl2. To quantitatively determine the kinetic properties of the interaction (KD, kd, ka) and avoid mass transport limitations, mTie2-Fc and hTie2-Fc were immobilized at low density (1,000-1,200RU) onto separate flow cells of the CM5 chip using amine coupling chemistry. Kinetic analyses were performed using a single-cycle kinetic […]
(Surface plasmon resonance follows binding to a sensor surface in real time, without labels.)

A further assay has as its target T2, mouse Tie2-Fc (mTie2-Fc) (Mus musculus, UniProt Q02858).
T2 construct: Purified human or mouse Tie2-Fc (i.e., Fc-conjugated extracellular domains of Tie2); purchased R&D Systems 762-T2-100
The assay can be described thus: SPR binding to mouse Tie2-Fc. Conditions: mouse Tie2-Fc (low- and high-density), 37°C, pH 7.4, Supplementary Fig S3.
From the text: To better understand the difficulties we had in observing Tie2 activation by VT, we sought to characterize the binding affinity and kinetics of VT to Tie2. Purified human or mouse Tie2-Fc (i.e., Fc-conjugated extracellular domains of Tie2) were first coupled to protein A sepharose beads for pull-down experiments (Fig9A and B) or immobilized on a Biacore CM5 sensor chip for surface plasmon resonance (SPR) experiments (Fig9C and Supplementary Fig S3). […]
as §1, §2, §3, §4
(structural/molecular weight control for VT), and 40 μL of supernatant (7% of residual/unbound ligand) – were similarly boiled in SDS sample buffer. […]
Binding analysis were performed by exposure of immobilized mTie2-Fc to the analytes diluted in HBS-EP (0.01M HEPES pH 7.4, 0.15M NaCl, 3mM EDTA, 0.005% v/v Tween-20), which was supplemented with 1mg/mL carboxymethyl dextran (NSB reducer, GE Healthcare) to reduce non-specific binding to the sensor chip. […] To quantitatively determine the kinetic properties of the interaction (KD, kd, ka) and avoid mass transport limitations, mTie2-Fc and hTie2-Fc were immobilized at low density (1,000-1,200RU) onto separate flow cells of the CM5 chip using amine coupling chemistry. […] All data were analysed using BIA Evaluation Software 2.0 (GE Healthcare) to calculate kd, ka and KD using the 1:1 ligand binding model. […]

In assay [2] the target is T3, mouse Tie2-Fc (Fc-conjugated extracellular domain of Tie2) (mouse, UniProt Q02858 23-746).
T3 chain: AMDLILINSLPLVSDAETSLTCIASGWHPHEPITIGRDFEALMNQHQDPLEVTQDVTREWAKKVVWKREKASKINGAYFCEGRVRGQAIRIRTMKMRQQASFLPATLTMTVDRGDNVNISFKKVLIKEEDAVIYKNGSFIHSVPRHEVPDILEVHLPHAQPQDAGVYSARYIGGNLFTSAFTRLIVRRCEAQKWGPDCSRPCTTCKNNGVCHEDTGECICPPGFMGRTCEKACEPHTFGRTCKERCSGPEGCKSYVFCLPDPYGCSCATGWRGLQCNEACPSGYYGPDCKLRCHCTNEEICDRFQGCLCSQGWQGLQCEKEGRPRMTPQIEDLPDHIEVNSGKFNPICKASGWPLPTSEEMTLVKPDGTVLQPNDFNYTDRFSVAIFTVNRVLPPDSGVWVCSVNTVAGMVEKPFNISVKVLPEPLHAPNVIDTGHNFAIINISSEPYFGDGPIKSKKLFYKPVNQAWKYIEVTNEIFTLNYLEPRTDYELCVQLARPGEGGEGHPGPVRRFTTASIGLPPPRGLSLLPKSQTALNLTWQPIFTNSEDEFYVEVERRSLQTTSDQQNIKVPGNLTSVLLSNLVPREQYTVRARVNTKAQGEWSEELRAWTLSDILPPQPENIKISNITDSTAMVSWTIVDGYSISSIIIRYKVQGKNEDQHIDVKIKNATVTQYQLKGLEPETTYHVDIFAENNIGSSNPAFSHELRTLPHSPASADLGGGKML
The assay can be described thus: SPR.

Assay [3] has as its target T3, mouse Tie2-Fc (Fc-conjugated …). The assay can be described thus: SPR.
Assay [4] has as its target T4, human Tie2-Fc (Fc-conjugated extracellular domain of Tie2) (human, UniProt Q02763 23-748).
T4 chain: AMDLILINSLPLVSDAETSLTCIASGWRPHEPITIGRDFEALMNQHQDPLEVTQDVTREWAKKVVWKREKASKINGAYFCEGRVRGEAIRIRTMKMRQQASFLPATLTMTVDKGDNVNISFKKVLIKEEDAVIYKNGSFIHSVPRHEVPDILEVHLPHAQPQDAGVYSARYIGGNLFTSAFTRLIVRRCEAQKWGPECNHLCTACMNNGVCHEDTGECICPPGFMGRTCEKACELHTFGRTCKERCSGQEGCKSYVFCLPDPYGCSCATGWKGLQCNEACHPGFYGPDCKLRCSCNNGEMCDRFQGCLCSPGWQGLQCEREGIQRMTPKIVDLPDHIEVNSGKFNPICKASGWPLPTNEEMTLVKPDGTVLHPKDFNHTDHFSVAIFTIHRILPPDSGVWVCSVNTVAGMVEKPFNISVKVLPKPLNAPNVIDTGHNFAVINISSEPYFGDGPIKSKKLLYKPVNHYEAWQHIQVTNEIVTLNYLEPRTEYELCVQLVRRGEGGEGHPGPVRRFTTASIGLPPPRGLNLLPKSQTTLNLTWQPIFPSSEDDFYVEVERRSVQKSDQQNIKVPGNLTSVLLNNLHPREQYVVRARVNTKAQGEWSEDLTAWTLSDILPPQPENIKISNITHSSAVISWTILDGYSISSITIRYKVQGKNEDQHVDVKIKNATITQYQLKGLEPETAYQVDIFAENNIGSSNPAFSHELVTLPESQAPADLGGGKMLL
The experiment in a line: SPR.

For assay [5], the target named is T4, human Tie2-Fc (Fc-conjugated …). The assay can be described thus: SPR.

Consider “HHHRHSF [T7, HHHRHSF, heptapeptide identified by phage display, synthetic free form]”, for which the “inhibition of Ang1 or Ang2 binding to Tie2” value in assay [1] is given as “did not inhibit Ang1 or Ang2 binding to Tie2”.
In the case of VEGF, the “binding to Tie2-Fc” value is “no binding to Tie2-Fc was detectable” at human Tie2-Fc (hTie2-Fc), “no detectable binding” at human Tie2-Fc (hTie2-Fc) (listed as rhVEGF) and “no binding to Tie2-Fc was detectable” on mouse Tie2-Fc (mTie2-Fc).
NLLMAAS [T4]: in assay [1] (ELISA and SPR, read-out: Ki, competitive inhibition of Ang1 or Ang2 binding to Tie2), the Ki (in general, the dissociation constant of the complex between target and ligand, obtained from inhibition or displacement) was roughly 300 µM. Besides, the “inhibition of Ang1 or Ang2 binding to Tie2” value in assay [1] was “able to competitively inhibit Ang1 or Ang2 binding to Tie2”.

B1: COMP-Ang1 (ligand)
chain: DLAPQMLRELQETNAALQDVRELLRHRVKEITFLKNTVMECDACGDTVHNLVNLCTKEGVLLKGGKREEEKPFRDCADVYQAGFNKSGIYTIYINNMPEPKKVFCNMDVNGGGWTVIQHREDGSLDFQRGWKEYKMGFGNPSGEYWLGNEFIFAITSQRQYMLRIELMDWEGNRAYSQYDRFHIGNEKQNYRLYLKGHTGTAGKQSSLILHGADFSTKDADNDNCMCKCALMLTGGWWFDACGPSNLNGMFYTAGQNHGKLNGIKWHYFKGPSYSLRSTTMMIRPLDF
B1: the dissociation rate constant (koff) – broadly, a measure of how fast the partners let go of each other – stood at 0.00208 s⁻¹ in assay [2] and 0.00361 s⁻¹ in assay [4]. Further, the Kd (commonly the constant that tells how readily two partners part at equilibrium) in assay [3] amounted to 1.32 nM; in assay [5] it was 1.36 nM.

B2: BowAng1 (Ang-F1-Fc-F1) (ligand)
chain: RDCADVYQAGFNKSGIYTIYINNMPEPKKVFCNMDVNGGGWTVIQHREDGSLDFQRGWKEYKMGFGNPSGEYWLGNEFIFAITSQRQYMLRIELMDWEGNRAYSQYDRFHIGNEKQNYRLYLKGHTGTAGKQSSLILHGADFSTKDADNDNCMCKCALMLTGGWWFDACGPSNLNGMFYTAGQNHGKLNGIKWHYFKGPSYSLRSTTMMIRPLDFRDCADVYQAGFNKSGIYTIYINNMPEPKKVFCNMDVNGGGWTVIQHREDGSLDFQRGWKEYKMGFGNPSGEYWLGNEFIFAITSQRQYMLRIELMDWEGNRAYSQYDRFHIGNEKQNYRLYLKGHTGTAGKQSSLILHGADFSTKDADNDNCMCKCALMLTGGWWFDACGPSNLNGMFYTAGQNHGKLNGIKWHYFKGPSYSLRSTTMMIRPLDF
Take B2: the koff in assay [2] amounted to 0.00231 s⁻¹; in assay [4], 0.00232 s⁻¹. Moreover, the Kd in assay [3] was 0.465 nM; in assay [5], 0.611 nM.
